Measurements: paper doi:10.1101/2024.07.18.604210

Legend:
[1] = target: C-terminal domain of SepF from M. tuberculosis (tbSepF-CTD, residues 146-241) (M. tuberculosis); test: AUC
[2] = target: C-terminal domain of SepF from M. tuberculosis (tbSepF-CTD, residues 146-241) (M. tuberculosis); test: SAXS
[3] = target: C-terminal domain of SepF from M. tuberculosis (tbSepF-CTD, residues 146-241) (M. tuberculosis); test: ITC

Sequence of C-terminal domain of SepF from M. tuberculosis (tbSepF-CTD, residues 146-241) (M. tuberculosis) (A1KKJ0 123-218 limits assumed): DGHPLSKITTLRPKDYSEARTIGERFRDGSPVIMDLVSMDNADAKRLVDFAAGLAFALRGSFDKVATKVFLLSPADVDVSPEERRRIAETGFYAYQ

Substance | stoichiometry N [1] | stoichiometry N [2] | Kd [3] | stoichiometry N [3]
C-terminal domain of SepF from M. tuberculosis (tbSepF-CTD, residues 146-241) (domain or fragment) | 2 | 2 | – | –
chemically synthesized 18-residue peptide from the C-terminal region of tbFtsZ | – | – | 19.7 µM | 1
